# Laboratory results: patent US9605038B2, “Fusion peptide comprising dhFas-1 domain and MMP substrate and use thereof for preventing and treating rheumatoid arthritis” (Kyungpook National University Industry-Academic Cooperation …, priority 2010, dated 2017)
# “Also recorded” adds a separate entry of the source.
# T1: MMP2 (Homo sapiens, UniProt P08253)
# T1 sequence (P08253 110-660): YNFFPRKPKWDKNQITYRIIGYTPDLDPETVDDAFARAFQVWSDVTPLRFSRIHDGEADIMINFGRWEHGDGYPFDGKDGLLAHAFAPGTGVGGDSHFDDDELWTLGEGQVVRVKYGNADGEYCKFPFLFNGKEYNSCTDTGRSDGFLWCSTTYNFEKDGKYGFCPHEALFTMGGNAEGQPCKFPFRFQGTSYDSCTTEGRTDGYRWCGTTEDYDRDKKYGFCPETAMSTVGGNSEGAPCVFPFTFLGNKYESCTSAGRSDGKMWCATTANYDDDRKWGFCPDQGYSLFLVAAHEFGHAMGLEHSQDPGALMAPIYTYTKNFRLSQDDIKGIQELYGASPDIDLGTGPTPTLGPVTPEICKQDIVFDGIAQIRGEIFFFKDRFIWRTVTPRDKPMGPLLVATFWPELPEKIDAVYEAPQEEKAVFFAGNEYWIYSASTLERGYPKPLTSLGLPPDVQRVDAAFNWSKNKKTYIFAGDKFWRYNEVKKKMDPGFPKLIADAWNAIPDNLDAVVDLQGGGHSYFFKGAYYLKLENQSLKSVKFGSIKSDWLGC
# T2: cathepsin K (Homo sapiens, UniProt P43235)
# T2 sequence (P43235 115-329): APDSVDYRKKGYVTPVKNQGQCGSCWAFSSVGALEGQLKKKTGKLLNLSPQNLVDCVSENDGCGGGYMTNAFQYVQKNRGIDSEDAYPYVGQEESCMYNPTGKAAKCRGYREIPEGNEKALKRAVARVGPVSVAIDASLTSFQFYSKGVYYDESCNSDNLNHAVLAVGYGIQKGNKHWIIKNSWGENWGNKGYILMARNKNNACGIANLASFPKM
# T3: MMP1 (Homo sapiens, UniProt P03956)
# T3 sequence (P03956 100-469): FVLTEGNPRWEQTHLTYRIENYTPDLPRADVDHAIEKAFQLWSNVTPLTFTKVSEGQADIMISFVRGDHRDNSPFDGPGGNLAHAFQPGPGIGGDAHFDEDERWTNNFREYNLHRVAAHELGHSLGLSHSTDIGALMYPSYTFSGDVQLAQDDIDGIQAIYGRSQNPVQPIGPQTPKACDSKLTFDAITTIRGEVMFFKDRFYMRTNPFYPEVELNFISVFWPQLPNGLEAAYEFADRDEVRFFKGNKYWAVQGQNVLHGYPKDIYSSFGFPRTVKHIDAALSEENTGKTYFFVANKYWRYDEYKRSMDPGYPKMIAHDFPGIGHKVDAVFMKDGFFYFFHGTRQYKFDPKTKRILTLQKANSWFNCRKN
# B1: MFK27: fusion peptide having sequential links of mdhFas-1, MMP3 substrate GPLGLWARG (SEQ ID NO: 8), and QERGDSLA (SEQ ID NO: 10) (protein)
# chain: MALLMRLLTLALALSVGPAGTLARSQAMPPEELNKLLANAKELTNILKYHIGDEILVSGGIGALVRLKSLQGDKLEVSSKNNVVSVNKEPVAETDIMEFGPLGLWARGVDQERGDSLAGLE
# modifications: MFK27
# B2: MFK25: fusion peptide having sequential links of mdhFas-1, MMP consensus substrate GPLGIAG (SEQ ID NO: 7), and QERGDSLA (SEQ ID NO: 10) (protein)
# chain: QAMPPEELNKLLANAKELTNILKYHIGDEILVSGGIGALVRLKSLQGDKLEVSSKNNVVSVNKEPVAETDIMEFGPLGIAGVDGQERGDSLAGLE
# modifications: MFK25
# B3: mdhFas-1: peptide prepared by removing H1 and H2 regions from the fourth fas-1 domain of mouse βig-h3 (protein)
# chain: QAMPPEELNKLLANAKELTNILKYHIGDEILVSGGIGALVRLKSLQGDKLEVSSKNNVVSVNKEPVAETDIM
# modifications: mdhFas-1
# notes: peptide prepared by removing H1 and H2 regions from the fourth fas-1 domain of mouse βig-h3
# Experiments:
# [1] = system: mouse fibroblast (NIH3T3); assay: βig-h3-mediated cell adhesion test, NIH3T3; format: cell-based; details: for adhesion inhibiting effect: NIH3T3, concentration of 0.5uM, FIG. 15C; for βig-h3-mediated cell adhesion: NIH3T3, βig-h3 5 ug/ml coat
# Protocol: (§1) Human βig-h3 was introduced into a 96-well plate at a concentration of 5 ug/ml, and coated for 14 hours at 4° C. In DMEM+0.5% BSA (Bovine Serum Albumin) culture medium, human fibroblast (NIH3T3) was introduced, and hsdhFas-1 peptide at concentrations was injected thereto, followed by mixing. The resultant mixture was cultured at 37° C. for 30 minutes, and plated on a coated well. It was cultured for 2 hours, and washed with PBS (phosphate buffered saline) so as to remove unattached cells, and then added with a substrate (4-Nitrophenyl N-acetyl-β-D-glucosaminide, Sigma, U.S.) to be activated by β-N-acetylglucosaminidase within the cell, followed by culturing at 37° C. for 1 hour. Then, a glycine EDTA solution (0.5M EDTA, 50 mM glycine, pH 10.4) was added thereto, and the coloring extent according to the number of attached cells was measured by absorbance.
# Also, a structurally modified peptide of a fas-1 domain of mouse βig-h3 was synthesized as a recombinant peptide (hereinafter, referred to as ‘mdhFas-1peptide’, see FIG. 2), and a mouse cell line, that is, NIH3T3 cell line, was used to test the inhibiting effect by mdhFas-1 peptide on adhesion and migration of a Synovial membrane cell in the same manner as that in the test using human βig-h3.
# as §1, with “βig-h3” for “Human βig-h3”, “mouse” for “human”, “MFK23, MFK24, MFK25 or MFK27” for “hsdhFas-1 peptide”
# cathepsin L = cathepsin L (Homo sapiens, UniProt P07711); assay: Enzymatic digestion test, cathepsin L; format: biochemical; details: 3 ug peptide, cathepsin L 100, 200, 800 ng, 37° C. 4 hours
# Protocol: (§2) 3 ug of synthesized mdhFas-1-MMPsubstrate structure modified protein, together with MMP1 (5 ng, 10 ng and 50 ng), MMP2 (100 ng, 200 ng and 800 ng), MMP3 (10 ng, 50 ng and 100 ng), cathepsin D (5 ng, 10 ng and 50 ng), cathepsin L (100 ng, 200 ng and 800 ng), and cathepsin K (10 ng, 50 ng and 100 ng), was mixed with enzyme buffer (150 mM NaCl, 5 mM. CaCl2, 20 mM Tris-HCl pH7.5), and reacted at 37° C. for 4 hours. The resultant product was subjected to electrophoresis through 15% polyacrylamide gel, transferred to a Nitrocellulose Membrane (Schleicher & Schuell), blocked at room temperature for 1 hour with TBST solution containing 3% BSA (20 mmole/L Tris-HCl, 137 mmole//l NaCl, 0.1% Tween-20), washed TBST solution three times (each for 10 minutes), and reacted with primary antibody (anti-Histidine or anti-Bigh3) for 1 hour. The resultant product was washed with TBST solution three times (each for 10 minutes), reacted with a secondary antibody conjugated to horseradish peroxidase (HRP) for 1 hour, washed TBST solution three times (each for 10 minutes), and visualized by ECL (Amersham Biosciences, UK) so as to detect the change in the amount of mdhFas-1-MMPsubstrate-RGD structural peptide.
# MMP3 = MMP3 (Homo sapiens, UniProt P08254); assay: Enzymatic digestion test, MMP3; format: biochemical; details: 3 ug peptide, MMP3 10, 50, 100 ng, 37° C. 4 hours
# Protocol: as §2
# MMP2 = target: T1, MMP2; assay: Enzymatic digestion test, MMP2; format: biochemical; details: 3 ug peptide, MMP2 100, 200, 800 ng, 37° C. 4 hours
# Protocol: as §2
# NIH3T3 = assay: βig-h3-mediated cell migration test (transwell), NIH3T3; format: cell-based, mouse; details: 7 hours
# Protocol: In the lower compartment of a transwell filter having an 8 um hole size allowing cells to be migrated, βig-h3 was cultured at 4° C. for 12 to 14 hours and coated. In DMEM+0.5% BSA culture medium, NIH3T3 was introduced, and administered with MFK23, MFK24 or MFK25 at concentrations, followed by mixing. The resultant mixture was cultured at 37° C. for 30 minutes, inoculated into the upper chamber of the coated well, and cultured for 7 hours at 37° C. Then, the cells migrated to the lower compartment of the filter were fixed by paraformaldehyde, and strained by a crystal violet. The cells […] remaining in the upper chamber were wiped out and the number of cells migrated to the lower compartment was microscopically counted.
# cathepsin K = target: T2, cathepsin K; assay: Enzymatic digestion test, cathepsin K; format: biochemical; details: 3 ug peptide, cathepsin K 10, 50, 100 ng, 37° C. 4 hours
# Protocol: as §2
# cathepsin D = cathepsin D (Homo sapiens, UniProt P07339); assay: Enzymatic digestion test, cathepsin D; format: biochemical; details: 3 ug peptide, cathepsin D 5, 10, 50 ng, 37° C. 4 hours
# Protocol: as §2
# MMP1 = target: T3, MMP1; assay: Enzymatic digestion test, MMP1; format: biochemical; details: 3 ug peptide, MMP1 5, 10, 50 ng, 37° C. 4 hours
# Protocol: as §2
# [2] = Toxicity test in CIA mouse (weight, serologic test, blood test); details: CIA mouse, 22nd day vs 48th day
# Protocol: On the 48th day, a serologic test and a blood test were carried out.
# [3] = system: collagen-induced arthritis (CIA) mouse model; assay: Arthritis therapeutic effect in CIA mouse (clinical arthritis index); format: in vivo
# Protocol: A CIA mouse model having the similar characteristic to that of human rheumatoid arthritis was prepared according to the description in a known literature (Protocol for the successful induction of collagen-induced arthritis (CIA) and collagen antibody-induced arthritis (CAIA) in mice. Chondrex, Redmond, Wash.): Bovine type 2 collagen 100 ug was mixed with Freund's complete adjuvant, and hypodermically inoculated into the tail of the mouse. After 3 weeks, bovine type 2 collagen 100 ug was mixed with Freund's incomplete adjuvant, and inoculated again into the tail of the mouse. Then, the mouse was used in the experiment.
# In order to find out the therapeutic effect of arthritis in a CIA model, for four weeks from the onset (the 23rd day) of arthritis following the second injection of the bovine type 2 collagen, MFK23 or MFK24 was daily injected into the abdominal cavity in doses of 0.1 mg/kg, 1 mg/kg, 10 mg/kg and 30 mg/kg. As a control group, the same amount of PBS was injected into the abdominal cavity. From the 23rd day to the 50th day, by using a Clinical arthritis index, the severity of arthritis was daily determined. The determination was based on the following data.
# 0; no symptom, 1; edema in one articulation or light edema, 2; severe edema in 2 or more articulations, 3; severe edema in most articulations, 4; severe edema in the whole of legs.
# Sequence of MMP3 (P08254 100-477, species assumed): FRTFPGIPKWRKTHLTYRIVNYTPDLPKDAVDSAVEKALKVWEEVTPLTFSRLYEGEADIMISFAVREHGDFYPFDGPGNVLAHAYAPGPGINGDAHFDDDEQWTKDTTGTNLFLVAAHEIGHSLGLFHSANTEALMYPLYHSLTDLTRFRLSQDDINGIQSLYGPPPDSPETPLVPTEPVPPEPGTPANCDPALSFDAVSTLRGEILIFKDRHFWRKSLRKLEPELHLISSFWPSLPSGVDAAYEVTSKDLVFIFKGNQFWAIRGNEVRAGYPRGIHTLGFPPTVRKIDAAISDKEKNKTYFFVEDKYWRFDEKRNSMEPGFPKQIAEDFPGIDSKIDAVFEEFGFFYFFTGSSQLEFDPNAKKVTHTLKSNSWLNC
# Sequence of cathepsin D (P07339 65-412, species assumed): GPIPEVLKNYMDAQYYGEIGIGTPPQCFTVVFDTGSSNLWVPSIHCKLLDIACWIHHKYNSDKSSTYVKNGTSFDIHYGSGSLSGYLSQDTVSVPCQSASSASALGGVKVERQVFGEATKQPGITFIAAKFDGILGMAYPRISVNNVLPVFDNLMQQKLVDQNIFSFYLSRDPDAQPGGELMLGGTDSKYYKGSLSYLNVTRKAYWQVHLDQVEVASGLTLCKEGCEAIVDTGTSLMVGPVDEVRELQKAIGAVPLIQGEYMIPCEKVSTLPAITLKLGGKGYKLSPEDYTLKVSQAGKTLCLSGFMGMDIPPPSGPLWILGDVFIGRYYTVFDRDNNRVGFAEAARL
# Sequence of cathepsin L (P07711 114-333, species assumed): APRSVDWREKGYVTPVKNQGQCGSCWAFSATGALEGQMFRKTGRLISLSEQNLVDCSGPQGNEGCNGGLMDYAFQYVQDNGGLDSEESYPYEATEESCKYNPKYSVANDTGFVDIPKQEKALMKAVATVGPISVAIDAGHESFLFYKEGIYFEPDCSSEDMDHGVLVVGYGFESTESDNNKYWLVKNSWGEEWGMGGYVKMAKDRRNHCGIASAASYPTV
molecule,measurement,setting,value
RGDSP (amino acid chain comprising ′RGD′) [reference compound],adhesion inhibiting effect,[1],0%
B1,βig-h3-mediated cell adhesion,[1],even at a very low concentration can inhibit the cell adhesion; also recorded: concentration-dependently inhibited
B2,cleavage through treatment with cathepsin L,cathepsin L,not cleaved
same,βig-h3-mediated cell adhesion,[1],even at a very low concentration can inhibit the cell adhesion; also recorded: concentration-dependently inhibited
same,cleavage through treatment with MMP-3,MMP3,concentration-dependently cleaved; also recorded: well cleaved
same,cleavage through treatment with MMP-2,MMP2,concentration-dependently cleaved
same,βig-h3-mediated cell migration,NIH3T3,inhibited the cell migration; also recorded: concentration-dependently inhibited
same,cleavage through treatment with cathepsin K,cathepsin K,not cleaved
same,cleavage through treatment with cathepsin D,cathepsin D,not cleaved
same,cleavage through treatment with MMP-1,MMP1,concentration-dependently cleaved; also recorded: well cleaved
B3,body weight change compared to control group,[2],abnormal findings in the weight change were not observed
same,adhesion inhibiting effect,[1],50%
same,βig-h3-mediated cell adhesion,[1],concentration-dependently inhibited
same,βig-h3-mediated cell migration,NIH3T3,concentration-dependently inhibited
same,arthritis inhibition (clinical arthritis index),[3]; 10 mg/kg daily,about 32%
same,arthritis inhibition (clinical arthritis index),[3]; 30 mg/kg daily,about 69%
same,"arthritis inhibiting effect (clinical arthritis index), in words",[3]; daily into the abdominal cavity,concentration-dependently inhibited
